Measurements: PMC8913309 (The Journal of Biological Chemistry, 2022)
Numbering of substitutions follows the chain as printed. Names may count otherwise.

Target: the molecule itself
Assay: SEC

B1: Plasmodium falciparum phosphoglycerate mutase 1 (PfPGM1), recombinant His6-tagged WT protein (enzyme)
chain: MTTYTLVLLRHGESTWNKENKFTGWTDVPLSEKGEEEAIAAGKYLKEKNFKFDVVYTSVLKRAICTAWNVLKTADLLHVPVVKTWRLNERHYGSLQGLNKSETAKKYGEEQVKIWRRSYDIPPPKLDKEDNRWPGHNVVYKNVPKDALPFTECLKDTVERVLPFWFDHIAPDILANKKVMVAAHGNSLRGLVKHLDNLSEADVLELNIPTGVPLVYELDENLKPIKHYYLLDSEELKKKMDEVANQGKAK
stoichiometry N: 4

B2: PfPGM1 P163A, recombinant His6-tagged mutant protein (enzyme, Plasmodium falciparum)
chain: B1 chain with P163A
stoichiometry N: 2

B3: PfPGM1 K100R, recombinant His6-tagged mutant protein (enzyme, Plasmodium falciparum)
chain: B1 chain with K100R
stoichiometry N: 4
